Results taken from the Human Domainome abundance scans (Beltran et al. 2025).

B1: Cullin-9, residues 2234 to 2275; numbered along this chain, Q8IWT3 (parent)
chain: KRCPSCQAPIEKNEGCLHMTCAKCNHGFCWRCLKSWKPNHKD

Variants of: B1
Assay: abundance fitness (aPCA) (normalised: wild type 0, dead -1); higher = more abundant; growth selection in yeast, the domain comes from the species named
Conditions: Homo sapiens

Abundance fitness of substitutions, site by site:
K23: E -0.209; R -0.015; S -0.174; D -0.239; T -0.115; L -0.325
K1: E -0.586; G -0.815; Y 0.038; V -0.46; W -1.42; H -0.436
C21: H -1.16; Y -0.465; G -0.482; Q -0.537; N -0.462; K -0.489; R -0.866; E -0.137
A8: N 0.305; M -0.155; K -0.006; L -0.256; D -0.284; P -0.555; F -0.01; T -0.027; Y -0.005; Q 0.014; S -0.058; C -0.213
A22: P 0.149; E 0.029; W -0.096; S -0.202; G -0.254
I10: R -0.534; V -0.138; H -0.588; K -0.598; Q -0.231; D -0.011
F28: M -0.39; H 0.322; P 0.048; K -0.288; E -0.074; V -0.236; W -0.255; C -0.189; N 0.135; Q 0.084; L -0.233
P9: F -0.373; V -0.277; I -0.53; E 0.051; W 0.335; D -0.267; S -0.347; H -0.291
H18: R -0.016; T -0.438; G -0.216; L -0.104; A -0.142; C -0.425; I -0.155; V -0.393; D -0.274
P4: F 0.434; I 0.013; T 0.002; L 0.065; V 0.117; E -1.27; S -0.129
W30: H -0.069; F -0.162; C -1.09; I -0.258; D 0.019; P 0.134; M -0.223; Q -0.05
C6: Q -0.587; D -0.091; H -0.222; Y -0.518; R -0.612; V -0.383; F -0.846; E -0.304; S -0.511; W -0.615; G -0.126
T20: I 0.196; Y 0.316; M -0.035; A -0.218; R -0.143; S -0.304; F -0.462; E -0.306
N39: F 0.269; Y -0.384; V -0.095; M -0.14; H -0.377; R -0.071
H26: Y -0.1; L -0.419; D 0.063; A -0.022; R -0.213; I -0.367; E -0.091; N -0.287; G -0.02
P38: H -0.867; S -0.26; L -0.178; T -0.204; Q -0.163; V -0.212; K -0.379; D -0.553
C16: H 0.105; I 0.444; P 0.161; E 0.507; A 0.329; Y -0.032; W -0.121; L -0.115; G 0.55; N 0.23
C29: H -0.532; A -0.76; F -1.53; L -0.696; N -0.761; V -0.969; S -0.749; Q -0.563; G -0.737
K34: C -0.341; L -0.639; T -0.313; F -0.378
R31: E 0.162; V 0.128; Q 0.208; I -0.072; S -0.065; K 0.371; D 0.119; P -0.17
H40: T -0.359; S 0.066; W -0.427; Q -0.123; R -0.283; Y -0.451; C -0.24; G -0.102
